The target in one series is LexA-Mxi1 (human). In words: interaction trap (yeast two-hybrid), pJK103 LexAop-lacZ reporter, galactose; the same value 10 stands on glucose, where tagged Mxi1 is not induced, and the filing reads this as no self-interaction.
The next series concerns the target LexA-Hairy (Drosophila). In words: interaction trap (yeast two-hybrid), pJK103 LexAop-lacZ reporter, galactose.
For the next series, the target named is LexA-Id (human). The description is as above.
The target of series [1] is LexA-Da (Escherichia coli (strain K12); Drosophila melanogaster (Fruit fly)) (UniProt P0A7C2). The series is described as above.
The next series deals with LexA-cMyc-Cterm (human). In words: interaction trap (yeast two-hybrid), pJK103 LexAop-lacZ reporter, galactose (<2 on glucose).
In a further series the target is LexA-Max (human). The series is described as above.
The target in series [2] is LexA-n-Myc-bHLH-Zip (Escherichia coli (strain K12); Homo sapiens (Human)). The series can be described thus: interaction trap (yeast two-hybrid), pJK103 LexAop-lacZ reporter, galactose (<2 on glucose); the text says that this bait does not interact.
Another series addresses Max (151 residue form) (Homo sapiens, UniProt P61244-2 P61244-2:1-151). In words: EMSA; complex b, 10 ng Max; 10 mM Tris pH 7.4, 80 mM NaCl, room temperature. The following applies: tags: none stated; E. coli; chain copies: 2 (inferred); label: 32P 5' end. The method, then:
(§1) Gel retardation DNA binding assays were performed essentially as described in Papoulas et al., (J. Biol. Chem. 267:10470–10480, 1992). Purified Max and c-Myc bHLH-Zip (which contained residues 342–439 of human c-Myc) were made from recombinant *E. coli* by standard techniques. GST-Mxi1 was made as follows: a fragment that contained the entire coding sequence of Mxi1 was amplified using polymerase chain reaction, subcloned into pGEX-2T (Pharmacia), and transformed into DH5α cells. The fusion protein was induced and isolated as described (Smith and Corcoran, *Current Protocols in Molecular Biology*, Ausubel et al., eds., Greene Publishing and Wiley-Interscience, New York, 1989). A double-stranded oligonucleotide, 5'-[…]-3' (SEQ ID NO: 9), that contained the CACGTG (SEQ ID NO: 10) consensus site was used. Approximately 0.5 μg of oligonucleotide was end labeled with [γ-^32P] ATP. Binding assays contained the indicated concentrations of purified Max, c-Myc bHLH-Zip, GST-Mxi1, and 0.5 ng of the labeled DNA probe. […]
Background: Mobility shift assays separate free from complexed probe on a gel.

Series [3] deals with c-Myc bHLH-Zip (amino acids 342-439) (human, UniProt P01106). The series can be described thus: gel retardation with an oligonucleotide holding the CACGTG site. The procedure:
as §1

3 molecules from patent US6017692, “Methods of detecting a malignant cell in a biological sample comprising measuring Mxi gene expression alterations” (The General Hospital Corporation, dated 1994) can be followed below.

Chain of LexA-Hairy (Drosophila) (P0A7C2 other isoform, or with tags, fused parts or gaps): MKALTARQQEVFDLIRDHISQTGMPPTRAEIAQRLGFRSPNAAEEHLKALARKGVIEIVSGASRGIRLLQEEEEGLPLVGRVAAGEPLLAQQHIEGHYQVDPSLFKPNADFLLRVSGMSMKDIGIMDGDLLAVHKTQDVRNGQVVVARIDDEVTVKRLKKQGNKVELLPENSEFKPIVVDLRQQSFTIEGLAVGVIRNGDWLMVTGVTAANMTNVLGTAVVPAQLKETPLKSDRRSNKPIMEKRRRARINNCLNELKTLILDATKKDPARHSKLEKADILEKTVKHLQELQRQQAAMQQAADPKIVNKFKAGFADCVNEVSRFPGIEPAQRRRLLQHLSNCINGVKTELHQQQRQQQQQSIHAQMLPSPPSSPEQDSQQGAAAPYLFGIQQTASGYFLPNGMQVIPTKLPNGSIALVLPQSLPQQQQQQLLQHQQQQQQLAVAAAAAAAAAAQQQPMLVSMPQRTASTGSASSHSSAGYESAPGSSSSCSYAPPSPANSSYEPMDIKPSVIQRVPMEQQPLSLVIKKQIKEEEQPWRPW
Chain of Max (151 residue form) (P61244 other isoform, or with tags, fused parts or gaps): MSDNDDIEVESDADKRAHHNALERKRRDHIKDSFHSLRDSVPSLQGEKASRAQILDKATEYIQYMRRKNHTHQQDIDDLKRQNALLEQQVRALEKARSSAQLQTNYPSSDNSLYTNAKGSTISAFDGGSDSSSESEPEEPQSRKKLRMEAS
Chain of LexA-Id (human) (P0A7C2 other isoform, or with tags, fused parts or gaps): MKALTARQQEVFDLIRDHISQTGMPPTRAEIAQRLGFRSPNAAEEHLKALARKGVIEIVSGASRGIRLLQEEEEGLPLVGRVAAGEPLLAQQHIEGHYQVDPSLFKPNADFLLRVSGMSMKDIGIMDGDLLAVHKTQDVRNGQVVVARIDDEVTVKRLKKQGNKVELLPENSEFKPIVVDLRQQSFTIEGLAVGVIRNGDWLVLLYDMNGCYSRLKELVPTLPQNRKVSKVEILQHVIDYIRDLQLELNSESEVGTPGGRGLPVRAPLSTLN
Chain of LexA-Da (Escherichia coli (strain K12); Drosophila melanogaster (Fruit fly)) (P0A7C2 1-202, tags or fused parts left off): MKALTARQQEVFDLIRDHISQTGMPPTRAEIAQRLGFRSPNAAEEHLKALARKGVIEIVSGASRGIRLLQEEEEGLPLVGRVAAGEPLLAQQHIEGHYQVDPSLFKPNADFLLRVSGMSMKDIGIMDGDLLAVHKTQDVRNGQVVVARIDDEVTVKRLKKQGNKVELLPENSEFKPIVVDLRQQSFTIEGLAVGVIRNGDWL
Chain of LexA-n-Myc-bHLH-Zip (Escherichia coli (strain K12); Homo sapiens (Human)) (P0A7C2 1-202, tags or fused parts left off): as above

B1: tagged Mxi1 (the invariant activation-tagged moiety of pJG4-5 fused to Mxi1 residues 10-220) (protein)
chain: PPKKKRKVAYPYDVPDYAKPPRRLSRAQKHSSGTSNTSTANRSTHNELEKNRRAHLRLCLERLKVLIPLGPDCTRHTTLGLLNKAKAHIKKLEEAERKSQHQLENLEREQRFLKWRLEQLQGPQEMERIRMDSIGSTISSDRSDSEREEIEVDVESTEFSHGEVDNISTTSISDIDDHSSLPSIGSDEGYSSASVKLSFTSYRTQHDITVQGKIFTGPIQYKQSLKLGS
For B1, the β-galactosidase (galactose) with LexA-Mxi1 (human) is 10; with LexA-Hairy (Drosophila), below 2; in the series with LexA-Id (human), below 2; in series [1], below 2; in the series with LexA-cMyc-Cterm (human), 10; in the series with LexA-Max (human), 120. In addition, the β-galactosidase (galactose) in series [2] was determined as 8.

B2: Myc-Max consensus site oligonucleotide (dsDNA)
DNA 1: GGAAGCAGACCACGTGGTCTGCTTCC
DNA 2: GGAAGCAGACCACGTGGTCTGCTTCC
B2: the binding result in the series with Max (151 residue form) is “binds”.

B3: glutathione S-transferase (GST)-Mxi1 1-220 (other)
chain: MPSPRLQHSKPPRRLSRAQKHSSGTSNTSTANRSTHNELEKNRRAHLRLCLERLKVLIPLGPDCTRHTTLGLLNKAKAHIKKLEEAERKSQHQLENLEREQRFLKWRLEQLQGPQEMERIRMDSIGSTISSDRSDSEREEIEVDVESTEFSHGEVDNISTTSISDIDDHSSLPSIGSDEGYSSASVKLSFTSYRTQHDITVQGKIFTGPIQYKQSLKLGS
On to B3, for which the binding result in series [3] is given as “no binding”.
